Measurements published in the supplement of paper PMC10126150.
± gives the standard deviation of the averaged measurements.

Test system: ATP
Assay: switch fluorescence ratio, 500 uM ATP over buffer (Cy3 cluster intensity, sum of 5 cycles each) (fold (ratio)); higher = stronger signal-on switching upon ATP binding; sequences stand for … in TCGTCGGCAGCGTCAGATGTGTATAAGAGACAGTTTTTTTTTTTTTTTTTTTTTTTTT…TC
Settings: aptamer strand: ATP DNA aptamer (quencher-CACCTGGGGGAGTATTGCGGAGGAAGG + anchor), 100 nM annealed; ATP concentration: 500 uM
In short: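 Imaging in selection buffer was followed by imaging after 15 min with 500 uM ATP at 22 °C, for Cy3-labelled switching-strand clusters annealed to 100 nM quencher-labelled ATP aptamer on a modified Illumina MiSeq flow-cell. Five of these buffer/ATP cycles ran, separated by NaOH stripping and re-annealing. The fluorescence ratio per cluster is summed target-cycle over summed buffer-cycle Cy3 intensity, averaged per switch-domain sequence; clusters outside 100-1000 RFU were removed.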
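Note: ATP exposure 15 min at 22 °C before imaging.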

Sequence TTAGGAAATT has a switch fluorescence ratio of 1.04 ± 0.032.

For TTAGGAAGGT, the switch fluorescence ratio was 1 ± 0.021.

In the case of TTAGGACGGC, the switch fluorescence ratio is reported as 0.876 ± 0.02.

TTAGGACTTG was tested, and the switch fluorescence ratio was 0.985 ± 0.015.

Work on TTAGGAGAAT yielded a switch fluorescence ratio of 0.999 ± 0.015.

Sequence TTAGGCCCTG has a switch fluorescence ratio of 0.992 ± 0.041.

TTAGGCGCAT gave a switch fluorescence ratio of 1.03 ± 0.025.

TTAGGCTTT gave a switch fluorescence ratio of 0.9374 ± 0.0049.

Sequence TTAGGGAA has a switch fluorescence ratio of 1.01 ± 0.023.

Sequence TTAGGGAAGT has a switch fluorescence ratio of 0.991 ± 0.031.

With TTAGGGAGTT the switch fluorescence ratio was 0.9784 ± 0.0062.

Sequence TTAGGGATAT has a switch fluorescence ratio of 1.22 ± 0.42.

Sequence TTAGGGCCAA has a switch fluorescence ratio of 1 ± 0.0078.

For TTAGGGCCGC, the switch fluorescence ratio was 0.966 ± 0.014.

With TTAGGGCTAG the switch fluorescence ratio was 0.9932 ± 0.0081.

TTAGGGCTGC was tested, and the switch fluorescence ratio was 0.98664 ± 0.00045.

Work on TTAGGGGAAG yielded a switch fluorescence ratio of 1.01 ± 0.022.

Work on TTAGGGGTGG yielded a switch fluorescence ratio of 0.996 ± 0.032.

In the case of TTAGGGTCAG, the switch fluorescence ratio is reported as 0.997 ± 0.035.

Sequence TTAGGGTCGC has a switch fluorescence ratio of 0.993 ± 0.035.

For TTAGGGTG, the switch fluorescence ratio was 0.992 ± 0.03.

For TTAGGGTTTC, the switch fluorescence ratio was 0.978 ± 0.013.

TTAGGTAGCA gave a switch fluorescence ratio of 1.007 ± 0.0024.

With TTAGGTATCT the switch fluorescence ratio was 1.01 ± 0.0095.

TTAGGTTTGT was tested, and the switch fluorescence ratio was 1 ± 0.031.

Sequence TTAGGTTTTG has a switch fluorescence ratio of 1.02 ± 0.061.

With TTAGTAAGTT the switch fluorescence ratio was 1.11 ± 0.12.

TTAGTACCCA was tested, and the switch fluorescence ratio was 1.03 ± 0.0032.

For TTAGTACCCT, the switch fluorescence ratio was 1.06 ± 0.043.

With TTAGTAGGAG the switch fluorescence ratio was 0.992 ± 0.034.

Work on TTAGTAGGTG yielded a switch fluorescence ratio of 0.98 ± 0.024.

With TTAGTAGTGG the switch fluorescence ratio was 0.974 ± 0.01.

Sequence TTAGTATGTT has a switch fluorescence ratio of 1 ± 0.035.

Work on TTAGTCGACC yielded a switch fluorescence ratio of 0.9919 ± 0.0016.

With TTAGTGATTA the switch fluorescence ratio was 0.996 ± 0.014.

For TTAGTGCTCC, the switch fluorescence ratio was 1.039 ± 0.0018.

For TTAGTGGCGA, the switch fluorescence ratio was 1.19 ± 0.31.

TTAGTGTTTT showed a switch fluorescence ratio of 0.98 ± 0.05.

TTAGTTACGG was tested, and the switch fluorescence ratio was 0.999 ± 0.019.

For TTAGTTATAG, the switch fluorescence ratio was 1 ± 0.025.

In the case of TTAGTTATGT, the switch fluorescence ratio is reported as 0.992 ± 0.0093.

Work on TTAGTTGAGT yielded a switch fluorescence ratio of 1.02 ± 0.028.

TTAGTTGTAA was tested, and the switch fluorescence ratio was 1.012 ± 0.0049.

TTAGTTGTTT showed a switch fluorescence ratio of 0.964 ± 0.023.

TTAGTTTGTT gave a switch fluorescence ratio of 0.981 ± 0.014.

TTAGTTTTGT gave a switch fluorescence ratio of 0.999 ± 0.027.

TTATAAAAAA gave a switch fluorescence ratio of 1.07 ± 0.079.

TTATAAAAGG was tested, and the switch fluorescence ratio was 1.031 ± 0.0021.

With TTATAAAGCG the switch fluorescence ratio was 1.054 ± 0.0028.

In the case of TTATAAAGGA, the switch fluorescence ratio is reported as 1.05 ± 0.046.

TTATAAATTG showed a switch fluorescence ratio of 0.991 ± 0.03.

In the case of TTATAAG, the switch fluorescence ratio is reported as 1.003 ± 0.0067.

Work on TTATAATCGT yielded a switch fluorescence ratio of 0.988 ± 0.014.

With TTATAATCTG the switch fluorescence ratio was 0.986 ± 0.064.

Work on TTATAATGGT yielded a switch fluorescence ratio of 1.02 ± 0.062.

For TTATACAAGT, the switch fluorescence ratio was 0.9574 ± 0.0065.

TTATACATCT showed a switch fluorescence ratio of 1.038 ± 0.0068.

TTATACATTG gave a switch fluorescence ratio of 1.02 ± 0.041.

TTATACGATG showed a switch fluorescence ratio of 1.01 ± 0.025.

Sequence TTATACGCGG has a switch fluorescence ratio of 0.991 ± 0.026.

TTATACGTAG showed a switch fluorescence ratio of 1.03 ± 0.019.

Sequence TTATACGTCG has a switch fluorescence ratio of 1.01 ± 0.023.

With TTATAGAGG the switch fluorescence ratio was 1.02 ± 0.0041.

TTATAGGGG was tested, and the switch fluorescence ratio was 1 ± 0.039.

For TTATAGGTCT, the switch fluorescence ratio was 1 ± 0.072.

TTATATCGGG was tested, and the switch fluorescence ratio was 0.995 ± 0.016.

For TTATATTGGG, the switch fluorescence ratio was 1 ± 0.033.

TTATATTGGT was tested, and the switch fluorescence ratio was 0.974 ± 0.028.

In the case of TTATATTTCT, the switch fluorescence ratio is reported as 1.01 ± 0.036.

Work on TTATCAATGG yielded a switch fluorescence ratio of 1.01 ± 0.078.

TTATCAGTGG was tested, and the switch fluorescence ratio was 0.9707 ± 0.002.

With TTATCATCTA the switch fluorescence ratio was 1.02 ± 0.013.

For TTATCATGGG, the switch fluorescence ratio was 0.993 ± 0.047.

In the case of TTATCCGGGT, the switch fluorescence ratio is reported as 0.9661 ± 0.0088.

Work on TTATCGGATT yielded a switch fluorescence ratio of 0.983 ± 0.029.

Sequence TTATCGGGAG has a switch fluorescence ratio of 0.9964 ± 0.0019.

TTATCTAATC gave a switch fluorescence ratio of 0.972 ± 0.008.

In the case of TTATCTCGTA, the switch fluorescence ratio is reported as 0.99 ± 0.013.

With TTATCTCTGG the switch fluorescence ratio was 0.9776 ± 0.0076.

With TTATGAAAGG the switch fluorescence ratio was 0.968 ± 0.03.

Work on TTATGAATAG yielded a switch fluorescence ratio of 0.99 ± 0.011.

In the case of TTATGACATT, the switch fluorescence ratio is reported as 1.01 ± 0.044.

With TTATGACGGG the switch fluorescence ratio was 1 ± 0.036.

TTATGAGAGC showed a switch fluorescence ratio of 0.964 ± 0.022.

With TTATGAGGGG the switch fluorescence ratio was 1.009 ± 0.0077.

For TTATGAGTTG, the switch fluorescence ratio was 0.963 ± 0.029.

In the case of TTATGAGTTT, the switch fluorescence ratio is reported as 0.988 ± 0.036.

Work on TTATGATCAG yielded a switch fluorescence ratio of 0.9912 ± 0.0038.

TTATGATTCA gave a switch fluorescence ratio of 0.973 ± 0.022.

In the case of TTATGCAAAA, the switch fluorescence ratio is reported as 1.14 ± 0.21.

TTATGCCGGG was tested, and the switch fluorescence ratio was 0.971 ± 0.032.

TTATGCTTTC was tested, and the switch fluorescence ratio was 1.25 ± 0.34.

TTATGGACTG was tested, and the switch fluorescence ratio was 1.01 ± 0.079.

In the case of TTATGGGAAG, the switch fluorescence ratio is reported as 0.998 ± 0.013.

Sequence TTATGGGCAG has a switch fluorescence ratio of 1.01 ± 0.029.

TTATGGGCGA gave a switch fluorescence ratio of 1 ± 0.046.

TTATGGTCTG was tested, and the switch fluorescence ratio was 0.984 ± 0.038.

Work on TTATGGTGGG yielded a switch fluorescence ratio of 0.981 ± 0.015.

TTATGTAGGT was tested, and the switch fluorescence ratio was 0.9798 ± 0.007.

Work on TTATGTTTAA yielded a switch fluorescence ratio of 0.999 ± 0.025.

TTATTAAATG gave a switch fluorescence ratio of 0.998 ± 0.013.

TTATTAAGGT gave a switch fluorescence ratio of 1.01 ± 0.031.

With TTATTACGCT the switch fluorescence ratio was 0.9981 ± 0.0094.

TTATTACGGG showed a switch fluorescence ratio of 1.01 ± 0.038.

With TTATTACTTA the switch fluorescence ratio was 0.984 ± 0.017.

Sequence TTATTAGAAG has a switch fluorescence ratio of 0.978 ± 0.012.

For TTATTAGAGC, the switch fluorescence ratio was 0.958 ± 0.085.

TTATTAGGAT was tested, and the switch fluorescence ratio was 0.974 ± 0.024.

Sequence TTATTAGGCA has a switch fluorescence ratio of 1.01 ± 0.023.

Sequence TTATTAGTCA has a switch fluorescence ratio of 0.986 ± 0.041.

TTATTATGGG was tested, and the switch fluorescence ratio was 0.987 ± 0.0073.

TTATTCATCG gave a switch fluorescence ratio of 1.01 ± 0.031.

TTATTCGCAA showed a switch fluorescence ratio of 4.457 ± 0.044.

In the case of TTATTCGGTA, the switch fluorescence ratio is reported as 0.9978 ± 0.0065.

Sequence TTATTCGTCC has a switch fluorescence ratio of 1.04 ± 0.058.

TTATTCTTTC showed a switch fluorescence ratio of 1.01 ± 0.046.

Sequence TTATTGCGCT has a switch fluorescence ratio of 0.994 ± 0.013.

TTATTGCGGG showed a switch fluorescence ratio of 0.967 ± 0.019.

TTATTGGGAC was tested, and the switch fluorescence ratio was 0.972 ± 0.02.

With TTATTGTTAC the switch fluorescence ratio was 1.03 ± 0.036.

In the case of TTATTGTTTT, the switch fluorescence ratio is reported as 1.02 ± 0.065.

TTATTTATTT gave a switch fluorescence ratio of 0.975 ± 0.03.

TTATTTGAGT showed a switch fluorescence ratio of 1.06 ± 0.12.

TTATTTTAAC showed a switch fluorescence ratio of 0.981 ± 0.04.

Sequence TTATTTTTAT has a switch fluorescence ratio of 0.998 ± 0.018.

Sequence TTATTTTTGC has a switch fluorescence ratio of 1.01 ± 0.042.

Work on TTCAAAACGC yielded a switch fluorescence ratio of 1.03 ± 0.054.

TTCAAAAGGG was tested, and the switch fluorescence ratio was 1.05 ± 0.052.

In the case of TTCAAAATGT, the switch fluorescence ratio is reported as 0.997 ± 0.032.

With TTCAAAGTCA the switch fluorescence ratio was 1.02.

TTCAAATGAG showed a switch fluorescence ratio of 0.98 ± 0.044.

TTCAAATGCT gave a switch fluorescence ratio of 0.998 ± 0.013.

In the case of TTCAAATTTA, the switch fluorescence ratio is reported as 0.995 ± 0.025.

For TTCAACGACG, the switch fluorescence ratio was 0.988 ± 0.082.

Sequence TTCAAGATGG has a switch fluorescence ratio of 0.992 ± 0.046.

Sequence TTCAAGATTT has a switch fluorescence ratio of 0.974 ± 0.022.

TTCAAGCAGA showed a switch fluorescence ratio of 1.034 ± 0.0087.

For TTCAAGCTGG, the switch fluorescence ratio was 1.039 ± 0.0098.

Sequence TTCAAGGGAG has a switch fluorescence ratio of 0.995 ± 0.014.

With TTCAAGGGTT the switch fluorescence ratio was 1.07 ± 0.18.

For TTCAATACCG, the switch fluorescence ratio was 1.09 ± 0.025.

TTCAATATGC showed a switch fluorescence ratio of 1.1 ± 0.033.

TTCAATATTT was tested, and the switch fluorescence ratio was 1 ± 0.024.

TTCAATCCGT gave a switch fluorescence ratio of 1.17 ± 0.24.

Sequence TTCAATGTAG has a switch fluorescence ratio of 1 ± 0.029.

Sequence TTCAATTCAC has a switch fluorescence ratio of 1.37 ± 0.41.

With TTCAATTTCC the switch fluorescence ratio was 1.01 ± 0.028.

For TTCACAGGAG, the switch fluorescence ratio was 1.12 ± 0.05.

Sequence TTCACATTGG has a switch fluorescence ratio of 1.01 ± 0.03.

Sequence TTCACGAGTG has a switch fluorescence ratio of 0.988 ± 0.052.

Sequence TTCACTGGGC has a switch fluorescence ratio of 1.01 ± 0.0013.

For TTCACTTTGA, the switch fluorescence ratio was 1.012 ± 0.0067.

With TTCACTTTTT the switch fluorescence ratio was 1 ± 0.012.
